The values below come from publication PMC3336205, “The generation and evaluation of two panels of epitope-matched mouse IgG1, IgG2a, IgG2b and IgG3 antibodies specific for Plasmodium falciparum and Plasmodium yoelii merozoite surface protein 1–19 (MSP1_(19))” (Experimental Parasitology, 2012).

Assay [1] has as its target T1, recombinant PfMSP1_(19)-GST (Plasmodium falciparum, strain not …, UniProt P04933).
T1 construct: merozoite surface protein 1 (MSP1), Plasmodium falciparum, C-terminal 19-kDa region (MSP1_19); also called C-terminal 19-kDa region of Plasmodium falciparum merozoite surface protein 1; source: recombinant, purified (Burghaus and Holder, 1994)
The experiment in a line: SPR; BIAcore X; PfMSP1_19-GST (50 μg/ml) amine-coupled to a CM5 chip; purified IgGs injected at 2, 1, 0.5, 0.25 and 0.125 μM, 50 μL at 10 μL/min; control Ag in flow cell 2. Particulars: both partners purified. For orientation: In SPR one partner is held on a chip, and binding of the other changes the refractive index at the surface.

Assay [2] concerns the target T2, recombinant PyMSP1_(19)-GST (Plasmodium yoelii yoelii (strain not …, UniProt P13828)).
T2 construct: merozoite surface protein 1 (MSP1), Plasmodium yoelii, C-terminal 19-kDa region (MSP1_19), homologous to PfMSP1_19; also called P. yoelii MSP1_(19); source: recombinant, purified (Lewis, 1989)
Description: ELISA; five micrograms of recombinant purified antigen (PfMSP1_19-GST or PyMSP1_19-GST) coated; culture supernatant of secreting clones; detected with HRP anti-mouse IgG Fc-specific or anti-mouse kappa light chain secondary antibodies; read at 450 nm. Particulars: one partner purified.

The term Kd denotes a measure of binding affinity in units of concentration.

T2 sequence (P13828 whole entry, looked up): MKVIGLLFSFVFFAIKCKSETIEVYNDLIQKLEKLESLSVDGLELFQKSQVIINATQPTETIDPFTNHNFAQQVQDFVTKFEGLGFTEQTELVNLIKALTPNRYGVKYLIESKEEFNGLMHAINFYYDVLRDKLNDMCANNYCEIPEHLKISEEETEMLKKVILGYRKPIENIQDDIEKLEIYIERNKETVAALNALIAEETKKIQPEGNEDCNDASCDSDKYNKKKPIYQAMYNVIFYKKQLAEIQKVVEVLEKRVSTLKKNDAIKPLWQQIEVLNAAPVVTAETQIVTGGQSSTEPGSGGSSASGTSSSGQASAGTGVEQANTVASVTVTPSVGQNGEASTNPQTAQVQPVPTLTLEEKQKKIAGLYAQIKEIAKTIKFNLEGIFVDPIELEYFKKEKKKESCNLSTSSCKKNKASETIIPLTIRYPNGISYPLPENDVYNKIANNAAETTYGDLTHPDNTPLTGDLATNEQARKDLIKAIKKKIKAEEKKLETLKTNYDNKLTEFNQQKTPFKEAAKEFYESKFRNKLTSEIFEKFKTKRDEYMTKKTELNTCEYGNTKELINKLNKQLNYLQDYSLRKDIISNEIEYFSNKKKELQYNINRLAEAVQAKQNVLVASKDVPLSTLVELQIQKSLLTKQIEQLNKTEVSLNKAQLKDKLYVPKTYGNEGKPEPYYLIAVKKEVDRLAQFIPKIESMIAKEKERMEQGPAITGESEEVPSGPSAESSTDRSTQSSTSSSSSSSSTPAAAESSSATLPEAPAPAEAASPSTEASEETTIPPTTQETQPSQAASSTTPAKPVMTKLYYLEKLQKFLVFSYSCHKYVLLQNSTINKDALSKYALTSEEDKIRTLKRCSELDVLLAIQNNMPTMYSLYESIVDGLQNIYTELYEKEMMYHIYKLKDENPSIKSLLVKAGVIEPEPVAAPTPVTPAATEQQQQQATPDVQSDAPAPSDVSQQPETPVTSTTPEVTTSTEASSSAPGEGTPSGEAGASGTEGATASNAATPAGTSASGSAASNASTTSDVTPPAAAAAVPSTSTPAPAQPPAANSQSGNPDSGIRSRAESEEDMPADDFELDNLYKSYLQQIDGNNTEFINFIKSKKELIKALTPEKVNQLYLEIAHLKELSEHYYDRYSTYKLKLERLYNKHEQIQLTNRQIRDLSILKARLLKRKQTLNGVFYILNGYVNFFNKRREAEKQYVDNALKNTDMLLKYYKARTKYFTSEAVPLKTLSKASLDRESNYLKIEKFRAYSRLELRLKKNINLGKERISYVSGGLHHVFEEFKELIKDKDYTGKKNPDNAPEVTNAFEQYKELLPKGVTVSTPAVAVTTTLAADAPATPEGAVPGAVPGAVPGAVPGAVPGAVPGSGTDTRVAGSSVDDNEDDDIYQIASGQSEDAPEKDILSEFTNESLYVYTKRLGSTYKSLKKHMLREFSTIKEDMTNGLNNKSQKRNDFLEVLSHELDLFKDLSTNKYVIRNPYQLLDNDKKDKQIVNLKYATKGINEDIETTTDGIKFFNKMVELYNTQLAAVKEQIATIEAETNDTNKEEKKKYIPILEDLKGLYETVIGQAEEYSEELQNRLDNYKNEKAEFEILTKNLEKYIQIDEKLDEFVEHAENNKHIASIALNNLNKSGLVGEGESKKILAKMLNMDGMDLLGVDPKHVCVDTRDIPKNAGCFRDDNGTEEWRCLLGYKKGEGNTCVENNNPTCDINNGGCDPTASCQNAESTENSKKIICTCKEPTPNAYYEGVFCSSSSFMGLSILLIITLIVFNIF

B1: mouse IgG1-C1 (PfMSP1_(19)-specific recombinant mouse IgG1) (antibody, V domains shown)
VH: EVQLVQSGPEVKKPGASVKVSCKTSGYSFTSYDINWVRQAPGQGLEWMGRISPYNGKTDYTQTLRGRVTMSTDTSTTTVYLELRSLKSDDTAVYYCAREGVWFAELLSWGEGTLVTVSS
VL: DIVMTQTPGTLSLSPGERATLSCRASQSVSGNYLAWYQQKPGQAPRLLIHGSSDRAAGTPDRFSGRGSGTDFTLTISRLEPEDFAVYYCQQYCSSPFTFGPGTKVEIK
notes: VH of C1 (anti-PfMSP1_19), as the VH of m7; mouse IgG1 heavy-chain constant region, amplified from BALB/c genomic DNA; VL of C1, as the VL of m7; mouse kappa light chain constant region, amplified from BALB/c genomic DNA; Plasmids pVH-C1-mIgG1 and pVL-C1-mouse kappa; also called mIgG1-C1; murine IgG1-C1; source: HEK-293T, stably transfected; culture supernatant, and purified (protein G-Sepharose)
With B1, in assay [1], the Ka was found to be 4.48e+07 M⁻¹ and the Kd came to 23 nM.

B2: human IgG1-C1 (JS1), parental human IgG1 antibody (antibody, V domains shown)
VH: B1 VH
VL: B1 VL
notes: VH of C1 (anti-PfMSP1_19); human IgG1 heavy-chain constant region; VL of C1; light-chain constant region of pVKExpress C1; IgG1; also called hIgG1-C1; (h)IgG1-C1
B2: in assay [1], the Ka worked out at 3.94e+07 M⁻¹ and the dissociation constant Kd turned out to be 23 nM.

B3: mouse IgG3-C1 (PfMSP1_(19)-specific recombinant mouse IgG3) (antibody, V domains shown)
VH: B1 VH
VL: B1 VL
notes: VH of C1 (anti-PfMSP1_19), as the VH of m7; mouse IgG3 heavy-chain constant region, amplified from genomic DNA; VL of C1, as the VL of m7; mouse kappa light chain constant region, amplified from BALB/c genomic DNA; Plasmids pVH-C1-mIgG3 and pVL-C1-mouse kappa; also called mIgG3-C1; source: CHO-K1, stably transfected; culture supernatant, and purified (protein G-Sepharose)
Regarding B3, in assay [1], the Ka is 2.33e+07 M⁻¹ and the dissociation constant (Kd) stood at 31.1 nM.

B4: mouse IgG2b-C1 (PfMSP1_(19)-specific recombinant mouse IgG2b) (antibody, V domains shown)
VH: B1 VH
VL: B1 VL
notes: VH of C1 (anti-PfMSP1_19), as the VH of m7; mouse IgG2b heavy-chain constant region, amplified from genomic DNA; VL of C1, as the VL of m7; mouse kappa light chain constant region, amplified from BALB/c genomic DNA; Plasmids pVH-C1-mIgG2b and pVL-C1-mouse kappa; also called mIgG2b-C1; source: CHO-K1, stably transfected; culture supernatant, and purified (protein G-Sepharose)
Consider B4, for which, in assay [1], the Ka was 1.2e+07 M⁻¹ and the Kd was found to be 84.1 nM.

B5: mouse IgG2a-C1 (PfMSP1_(19)-specific recombinant mouse IgG2a) (antibody, V domains shown)
VH: B1 VH
VL: B1 VL
notes: VH of C1 (anti-PfMSP1_19), as the VH of m7; mouse IgG2a heavy-chain constant region, amplified from genomic DNA; VL of C1, as the VL of m7; mouse kappa light chain constant region, amplified from BALB/c genomic DNA; Plasmids pVH-C1-mIgG2a and pVL-C1-mouse kappa; also called mIgG2a-C1; source: CHO-K1, stably transfected; culture supernatant, and purified (protein G-Sepharose)
Regarding B5, in assay [1], the Ka was 3.32e+07 M⁻¹ and the dissociation constant (Kd) turned out to be 30.1 nM.

B6: mouse IgG1-B10 (PyMSP1_(19)-specific recombinant mouse IgG1) (antibody, V domains shown)
VH: QVQLQQSGPELVKPGASVKVSCKASGYAFTSYNMYWVKQSHGKSLEWIGYIDPYNGGTSYNQKLKGKATLTVDKSSSTAYIHLNSLTSEDSAVYYCTIHYYGYGGFAYWGQGTTVTSS
VL: DIELTQSTAIMSASPGEKVTMTCSASSSVRYMYWYQQKPGSSPRLLIYDTSKLASGVPVRFSGSGSGTSYSLAISRMEAEDAASYYCQQWSSYPPTLGGGTKLEIK
notes: VH of B10 (anti-PyMSP1_19), from pB10-VH/5; mouse IgG1 heavy-chain constant region, amplified from BALB/c genomic DNA; VL of B10, from pB10-VL/10; mouse kappa light chain constant region, amplified from BALB/c genomic DNA; Plasmids pVH-B10-mIgG1 and pVL-B10-mouse kappa; source: HEK-293T, stably transfected; culture supernatant
Turning to B6, the binding result in assay [2] is recorded as “binds”.

B7: mouse IgG3-B10 (PyMSP1_(19)-specific recombinant mouse IgG3) (antibody, V domains shown)
VH: B6 VH
VL: B6 VL
notes: VH of B10 (anti-PyMSP1_19), from pB10-VH/5; mouse IgG3 heavy-chain constant region, amplified from genomic DNA; VL of B10, from pB10-VL/10; mouse kappa light chain constant region, amplified from BALB/c genomic DNA; Plasmids pVH-B10-mIgG3 and pVL-B10-mouse kappa; source: CHO-K1, stably transfected; culture supernatant
On to B7, for which the binding result in assay [2] is on record as “binds”.

B8: mouse IgG2a-B10 (PyMSP1_(19)-specific recombinant mouse IgG2a) (antibody, V domains shown)
VH: B6 VH
VL: B6 VL
notes: VH of B10 (anti-PyMSP1_19), from pB10-VH/5; mouse IgG2a heavy-chain constant region, amplified from genomic DNA; VL of B10, from pB10-VL/10; mouse kappa light chain constant region, amplified from BALB/c genomic DNA; Plasmids pVH-B10-mIgG2a and pVL-B10-mouse kappa; source: CHO-K1, stably transfected; culture supernatant
On to B8, for which the binding result in assay [2] is “binds”.

B9: mouse IgG2b-B10 (PyMSP1_(19)-specific recombinant mouse IgG2b) (antibody, V domains shown)
VH: B6 VH
VL: B6 VL
notes: VH of B10 (anti-PyMSP1_19), from pB10-VH/5; mouse IgG2b heavy-chain constant region, amplified from genomic DNA; VL of B10, from pB10-VL/10; mouse kappa light chain constant region, amplified from BALB/c genomic DNA; Plasmids pVH-B10-mIgG2b and pVL-B10-mouse kappa; source: CHO-K1, stably transfected; culture supernatant
On to B9, for which the binding result in assay [2] is reported as “binds”.
